The values below come from patent publication US20150344583A1 (Amgen, published 2015).

Test [1] deals with T1, human BCMA (huBCMA) on cells (human, UniProt Q02223 1-184).
T1 construct: endogenous on H929, JD38 and other myeloma and B-cell lines and on patient plasma cells; also called native human BCMA
T1 chain: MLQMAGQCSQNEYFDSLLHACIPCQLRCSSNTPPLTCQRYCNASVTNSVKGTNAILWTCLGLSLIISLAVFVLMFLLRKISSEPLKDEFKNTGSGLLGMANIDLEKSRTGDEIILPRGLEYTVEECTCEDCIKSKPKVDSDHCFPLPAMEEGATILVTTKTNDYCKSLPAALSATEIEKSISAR
The test can be described thus: FACS, hu BCMA. Background: A flow cytometer gives signals particle by particle.

Test [2] addresses T2, TACI on transiently transfected cells (human, UniProt O14836 1-293).
T2 construct: whole, on cells; also called huTACI
T2 sequence (looked up): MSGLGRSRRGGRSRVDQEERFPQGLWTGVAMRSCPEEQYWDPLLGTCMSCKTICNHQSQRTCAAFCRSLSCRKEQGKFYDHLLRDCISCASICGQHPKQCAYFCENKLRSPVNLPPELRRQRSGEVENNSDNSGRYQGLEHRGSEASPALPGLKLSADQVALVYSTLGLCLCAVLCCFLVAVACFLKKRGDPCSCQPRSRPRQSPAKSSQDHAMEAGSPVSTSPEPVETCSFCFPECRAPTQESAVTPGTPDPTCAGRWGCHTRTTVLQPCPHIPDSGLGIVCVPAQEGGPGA
The test can be described thus: FACS, hu TACI.

Test [3] addresses T3, cynomolgus (Macaca fascicularis) BCMA on cells (cynomolgus (Macaca fascicularis), UniProt Q02223 1-184 (human entry)).
T3 construct: also called cyno BCMA; cynomolgus BCMA
Put plainly: FACS, Cyno BCMA.

Test [4] concerns the target T3, cynomolgus (Macaca fascicularis) BCMA …. The test can be described thus: CynoBCMA O/N FACS.
The target of test [5] is T1, human BCMA (huBCMA) on cells. The test can be described thus: cell-based or functional assay.

T3 sequence (Q02223 other isoform, or with tags, fused parts or gaps): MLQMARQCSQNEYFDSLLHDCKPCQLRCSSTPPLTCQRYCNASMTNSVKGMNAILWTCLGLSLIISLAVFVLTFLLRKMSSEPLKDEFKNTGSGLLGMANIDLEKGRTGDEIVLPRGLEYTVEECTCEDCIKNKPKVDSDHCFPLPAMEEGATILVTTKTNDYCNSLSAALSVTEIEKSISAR

B1: 30E1 (antibody, V domains shown)
VH: EVQLLESGGGLVQPGGSLRLSCAASGFTFSSHAMSWVRQAPGKGLEWVSAISGGDGNTYYADSVKGRFAISRDNSKNVVYLQMNSLRAEDTAVYFCAKDLVGVVAGYYYYFGMDVWGQGTTVTVSS
VL: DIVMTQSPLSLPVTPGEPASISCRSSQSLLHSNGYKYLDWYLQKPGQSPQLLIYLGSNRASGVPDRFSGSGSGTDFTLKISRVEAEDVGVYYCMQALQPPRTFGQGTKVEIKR
notes: IgG2 or IgG4, purified from hybridoma supernatant; also called 30E1.1; Ab-9
Consider B1, for which the MFI in test [1] is 109000 MFI; in test [2], 555 MFI; in test [3] it was 78500 MFI; in test [4], 130 MFI.

B2: 1E1-PEG4-Mal-DM4 (antibody, V domains shown)
VH: QVQLVQSGAEVKKPGASVKVSCKASGYTFTGHYIHWVRQAPGQGLEWMGWIYPNSGGTNYAQKFQGRVTMTRDTSISTAYMELSRLRSDDSAVYYCAREGMVTGDYYYYRMDVWGQGTTVIVSS
VL: QPVLTQPPSASASLGASVTLTCSLSSGYSNYKVDWYQQRPGKGPRFVMRVGIGGIVGSKGDGIPDRFSVLGSGLNRYLTIKNIQEEDESDFHCGADHGSGNNFVYVFGTGTKVTVLG
With B2, in test [5], the “IC50, CellTiter-Glo cell viability, H929 cells, 96 h” value (shortened to “IC50, CellTiter-Glo cell viability”) was 0.68 nM.

B3: 1E1-MCC-DM1 (antibody, V domains shown)
VH: QVQLVQSGAEVKKPGASVKVSCKASGYTFTGHYIHWVRQAPGQGLEWMGWIYPNSGGTNYAQKFQGRVTMTRDTSISTAYMELSRLRSDDSAVYYCAREGMVTGDYYYYRMDVWGQGTTVIVSS
VL: QPVLTQPPSASASLGASVTLTCSLSSGYSNYKVDWYQQRPGKGPRFVMRVGIGGIVGSKGDGIPDRFSVLGSGLNRYLTIKNIQEEDESDFHCGADHGSGNNFVYVFGTGTKVTVLG
B3: in test [5], the “IC50, CellTiter-Glo cell viability” value was 0.63 nM.

B4: 32H3 (antibody, V domains shown)
VH: EVQLLESGGGLVQPGGSLRLSCAASGFTFSSYAMSWVRQAPGKGLKWVSAISGGAGNTYYADSVKGRFTISRDISKSTVYLQMTSLRAEDTAIYYCAKDGVGTTGGYFYYHGMDVWGQGTTVTVSS
VL: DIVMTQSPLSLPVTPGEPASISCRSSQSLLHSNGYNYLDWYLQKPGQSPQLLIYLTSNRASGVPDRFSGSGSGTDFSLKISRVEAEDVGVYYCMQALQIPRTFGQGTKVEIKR
notes: IgG2 or IgG4, purified from hybridoma supernatant; also called 32H3.1; Ab-12
Take B4: the MFI was 97700 MFI in test [1], 1360 MFI in test [2], 51200 MFI in test [3] and 122 MFI in test [4].

B5: 29C12-MCC-DM1 (antibody, V domains shown)
VH: EVQLLESGGALVQPGGSLRLSCAASGFTFSSYAMNWVRQAPGKGLEWVSAISVGGDTYYADSVKGRFTISRDNSKNTLYLQMNSLRAEDTAVYYCAKDQVTMVRGVWYYYGLDVWGQGTTVTVSS
VL: DIVMIQSPLSLPVTPGEPASISCRSSQSLLHSNGNNYLDWYLQKPGQSPHLLISLGSNRTSGVPDRFSGSGSGTDFTLKISRVEAEDVGVYYCMQALQPPRRFGQGTKLEIKR
With B5, in test [5], the “IC50, H929 cell growth (CellTiter-Glo, 96 h)” value was determined as 0.39 nM.

B6: 32B5 (antibody, V domains shown)
VH: EVQLLESGGALVQPGGSLRLSCAASGFTFSSYAMNWVRQAPGKGLEWVSAISVGGDTYYADSVKGRFTISRDNSKNTLYLHVNSLSAEDSAVYYCAKDQVTLVRGVWYYYGLDVWGQGTTVTVSS
VL: VIVLIQSPLSLPVTPGEPASISCRSSQSLLHSNGNNYLDWYLQKPGQSPHLLISLGSNRTSGVPDRFSGSGSGTDFTLKISRVEAEDVGFYYCMQALQPPRRFGQGTKLEIKR
notes: IgG2 or IgG4 as purified from hybridoma (32B5.1); later converted to human IgG1; an engineered version may be meant there; also called 32B5.1; Ab-10
Regarding B6, the MFI stood at 137000 MFI in test [1], 274 MFI in test [2], 257000 MFI in test [3] and 108 MFI in test [4].

B7: 35D2 (antibody, V domains shown)
VH: EVQLLESGGALVQPGGSLRLSCAASGFTFSSYAMNWVRQAPGKGLEWVSAISVGGGTYYADSVKGRFTISRDNSKNTLYLHVNSLRAEDTAVYYCAKDQVTMVRGVWYYYGLDVWGQGTTVTVSS
VL: VIVLIQSPLSLPVTPGEPASISCRSSQSLLHSNGNNYLDWYLQKPGQSPHLLISLGSNRTSGVPDRFSGSGSGTDFTLKISRVEAEDVGFYYCMQALQPPRRFGQGTKLEIKR
notes: IgG2 or IgG4, purified from hybridoma supernatant; also called 35D2.1; Ab-15
B7: the MFI in test [1] stood at 129000 MFI; in test [2] it was 506 MFI; in test [3], 198000 MFI; in test [4] it was 152 MFI.

B8: 37B2 (antibody, V domains shown)
VH: EVQLLESGGALVQPGGSLRLSCAASGFTFSNYAMNWVRQAPGKGLEWVSAISVGGDTYYADSVKGRFTISRDNSKNTLYLHVNSLSAEDSAVYYCAKDQVTLVRGVWYYYGLDVWGQGTTVTVSS
VL: VIVLIQSPLSLPVTPGEPASISCRSSQSLLHSNGNNYLDWYLQKPGQSPHLLISLGSNRTSGVPDRFSGSGSGTDFTLKISRVEAEDVGFYYCMQALQPPRRFGQGTKLEIKR
notes: IgG2 or IgG4, purified from hybridoma supernatant; also called 37B2.1; Ab-16
With B8, the MFI in test [1] was determined as 83700 MFI; in test [2], 1040 MFI; in test [3], 136000 MFI; in test [4] it was 104 MFI.

B9: 29C12 (antibody, V domains shown)
VH: EVQLLESGGALVQPGGSLRLSCAASGFTFSSYAMNWVRQAPGKGLEWVSAISVGGDTYYADSVKGRFTISRDNSKNTLYLQMNSLRAEDTAVYYCAKDQVTMVRGVWYYYGLDVWGQGTTVTVSS
VL: DIVMIQSPLSLPVTPGEPASISCRSSQSLLHSNGNNYLDWYLQKPGQSPHLLISLGSNRTSGVPDRFSGSGSGTDFTLKISRVEAEDVGVYYCMQALQPPRRFGQGTKLEIKR
notes: IgG2 or IgG4 as purified from hybridoma (29C12.1); later converted to human IgG1; an engineered version may be meant there; also called 29C12.1; Ab-8
For the molecule B9, the MFI in test [1] stood at 82600 MFI; in test [2] it was 256 MFI; in test [3] it was 97300 MFI; in test [4] it was 110 MFI.

B10: 2A1-PEG4-Mal-DM4 (antibody, V domains shown)
VH: EVQLVESGGGLVKPGRSLRLSCTASGFTFGDYALSWFRQAPGKGLEWVGVSRSKAYGGTTDYAASVKGRFTISRDDSKSFAYLQMNSLKTEDTAVYYCCSSGYSSGWTPFDYWGQGTLVTVSS
VL: not shown
modifications: PEG4-Mal-DM4 conjugated, sites not stated
For the molecule B10, in test [5], the “IC50, CellTiter-Glo cell viability” value worked out at 2.2 nM.

B11: 2A1-MCC-DM1 (antibody, V domains shown)
VH: EVQLVESGGGLVKPGRSLRLSCTASGFTFGDYALSWFRQAPGKGLEWVGVSRSKAYGGTTDYAASVKGRFTISRDDSKSFAYLQMNSLKTEDTAVYYCCSSGYSSGWTPFDYWGQGTLVTVSS
VL: not shown
modifications: MCC-DM1 conjugated, sites not stated
For the molecule B11, in test [5], the “IC50 (nM DM1), cell viability, EW36” value worked out at 30 nM DM1; the “IC50 (nM DM1), cell viability, H929” value was found to be 0.6 nM DM1; the “IC50 (nM DM1), cell viability, MM1R” value came to 3.9 nM DM1; the “IC50 (nM DM1), cell viability, MM1S” value was found to be 1 nM DM1. Further, in test [5], the “IC50 (nM DM1), cell viability, RAMOS” value came out at 32 nM DM1; the “IC50 (nM DM1), cell viability, U266” value amounted to 0.8 nM DM1; the “IC50, CellTiter-Glo cell viability” value amounted to 2.4 nM.

B12: 2A1CV5-MCC-DM1 (Ab-1 ADC) (antibody, human IgG1, lambda, V domains shown)
VH: EVQLVESGGGLVKPGGSLRLSCAASGFTFGDYALSWFRQAPGKGLEWVGVSRSKAYGGTTDYAASVKGRFTISRDDSKSTAYLQMNSLKTEDTAVYYCASSGYSSGWTPFDYWGQGTLVTVSS
VL: not shown
modifications: MCC-DM1 conjugated, sites not stated
On to B12, for which the “IC50 in an H929 tumor cell growth inhibition assay (antibody concentration)” value in test [5] was approximately 0.078 nM.
